According to the supplement of paper PMC10567573:

B1: PDLIM4 (parent)
chain: FLDERLYCESHAKARVKPPEGYDV

Variants of: B1
Experiment: protein stability index of a GFP-peptide fusion (GPS, HEK-293T) (PSI 1-6); higher = more stable
Conditions: c terminus: a fixed tail appended
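Also: lentivirally expressed fusions sorted by FACS into six bins by GFP to DsRed ratio, PSI derived from sequencing read proportions per bin multiplied by bin number.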

Protein stability index: each site, then its substitutions
Y7: V 3.85; D 4.71; H 4.05; G 2.04; P 4.5; E 4.06; C 3.66; Q 4.26; K 4.06; F 2.79; M 3.6; N 4.26; I 3.6; R 3.99; T 5.4; L 3.18; A 2.63; S 3.89
A12: C 1.23; M 1.53; S 1.42; H 1.77; Q 1.37; T 2.04; R 1.82; I 1.6; N 1.42; D 2.48; L 1.28; F 3.29; E 1.47; Y 1.77; G 2.68
D23: A 1.48; P 2.3; K 2.53; I 1.81; N 2.3; S 2.85; F 1.73; H 3.11; C 1.65; Q 2.23; G 1.14; W 1.81; Y 2.45; T 2.03
Y22: L 1.15; P 3.32; T 2.29; A 1.32; E 2.43; I 3; S 1.04; C 2.75; W 1.28; N 2.65; D 1.53; R 2.71; Q 2.55; G 2.68; K 2.46; M 1.37; F 1.43
D3: V 2.5; K 2.49; R 2.32; F 2.66; P 2.64; S 1.03; N 1.21; H 2.39; Q 1.53; L 2.27; I 1.94; G 1.92; M 1.48; T 1.31
H11: M 2.23; L 1.48; S 1.98; E 1.34; C 1.04; R 1.79; A 1.85; F 1.48; V 1.72; I 2.19; Q 1.34; K 1.64; T 1.99; Y 2.18; D 2.39; N 1.86
A14: I 2.02; S 2.01; M 1.76; Q 2.29; K 1.07; D 1.36; E 1.31; Y 2.23; G 2.7; N 1.39; H 2.56; L 1.75; R 2.57; F 1.65
P19: G 2.01; E 1.05; S 1.11; N 1.21; K 2.31; M 1.77; Y 1.43; H 1.72; L 2.26; T 2.29; R 2.65; W 2.75; D 2.15; F 1.93; I 1.86; C 2.26
R15: H 3.03; A 2.13; C 1.97; I 2.03; K 2.18; L 2.41; N 1.53; P 1.26; Y 1.58; G 1.7; E 1.34; Q 2.41; D 1.93; M 1.18; V 1.77; F 2.33; W 3.92; T 1.67
R5: V 2.35; E 2.42; G 2.47; L 1.98; I 2.24; M 2.33; P 2.98; F 1.52; W 3.09; D 2.11; S 2.37; T 1.3; Y 1.42; A 1.86; K 1.66; N 1.49
E9: L 2.34; M 2.41; T 1.31; Q 1.44; S 1.97; G 1.74; K 1.42; W 1.22; V 1.83; D 1.8; Y 2.13; F 1.49; H 2.13; A 1.57; N 2.58
K13: G 1.72; M 2.85; I 2.71; L 1.45; Q 1.61; N 1.36; H 2.18; C 1.21; Y 2.63; P 2.24; D 1.32
L6: D 4.54; S 2.47; P 1.7; K 2.09; F 3.03; R 1.45; E 3.09; G 3.42; T 2.55; N 3.08; H 1.72; Q 2.5; M 2.87; I 1.97; V 1.59
V16: K 3.09; Y 1.51; I 1.62; D 2.14; R 1.5; S 3.79; C 1.43; T 3.71; G 1.57; N 1.96; A 1.75; M 1.53; P 1.64; H 1.92; W 2.7; Q 1.22
E4: D 1.71; Y 2.02; S 5.15; R 3.33; C 3.33; V 2.06; L 2.34
E20: V 3; D 1.74; L 1.1; T 2.26; S 1.4; H 2.82; A 2.53; G 2.67; M 2.03; P 3.31; R 2.7; I 2.65; Y 2.28; Q 3.09; N 2.28
C8: I 1.41; Q 2.44; D 3.78; M 1.64; N 2.59; G 3.41; F 2.3; A 1.53; T 2.62; V 2.28; K 1.58; Y 2.17; L 2.26; W 2.14; H 2.71; R 1.81; E 3.52; S 2.39
G21: Y 2.09; V 2.34; I 2.25; T 2.14; H 1.59; Q 2.4; E 2.62; N 2.4; S 1.69; W 1.49; D 2.94; F 1.72; K 1.63; A 1.83; C 1.89; M 2.4; L 1.77; P 1.8
K17: C 1.99; D 1.27; M 2.53; H 1.88; A 1.91; L 2.56; E 2.08; S 1.48; V 2.62; I 1.33; F 2.12; Q 1.86; N 1.87; Y 1.66; R 1.87; P 2.25
P18: A 2.82; R 2.41; G 1.75; D 1.36; F 2.16; V 1.96; T 1.71; Y 2.46; I 1.01; E 1.75; M 1.1; H 1.69; S 2.52; Q 2.38; N 1.54
V24: I 2.47; E 1.6; H 1.63; P 2.53; C 1.71; A 2.09; L 1.03; Q 1.11; G 1.51; N 2.32; M 2.12; D 1.33
S10: K 2.12; P 2.32; V 1.4; A 1.44; H 1.58; E 2.1; W 3.67; G 1.97; L 2.69; Y 2.75; C 1.95; M 2.54; N 1.26; D 2.01; I 2.17; T 1.79; Q 1.88; F 1.61
